Experimental data: patent US20100015126A1, “Methods of Binding of Cross-Beta Structures By Chaperones” (priority 2006, published 2010)

Tests used:
[1] = target: T1, human mitochondrial HSP60 (Homo sapiens, UniProt P10809); test: ELISA: binding of HSP60 to immobilized (misfolded) protein ligands
T1 construct: Dr. W. van Eden, Utrecht University; host or cells: E. coli
Description: Recombinant human HSP60 with N-terminal His-tag was a kind gift of Dr. R. van der Zee and Prof. Dr. W. van Eden (Institute of Infectious Diseases and Immunology, Faculty of Veterinary Medicine, Utrecht University, Utrecht, The Netherlands), and was supplied in lyophilized form. The HSP60 was produced in E. coli and purified using Nickel-Sepharose. The HSP60 was lyophilized from 20-40 mM ammonium-bicarbonate solution, after purification, and stored at −20° C. The construct lacks the mitochondrial signal sequence. […] Before use, the lyophilized protein is dissolved at room temperature at 1 mg/ml in 20-40 mM NH4HCO3, resulting in a pH of 7.0. Aliquots are stored at −20° C. or −80° C. The mitochondrial HSP60 is a functional dimer of heptamers (MW(HSP60 monomer)=˜58 kDa), and is involved in multimer protein assembling and aids in transport of unfolded proteins across membranes. For the binding studies, at two occasions separate HSP60 solutions were prepared originating from the same batch of purified protein, lyophilized in separate Eppendorf cups.
Binding of chaperones to immobilized (misfolded) protein ligands was determined using an enzyme linked immuno sorbent assay (ELISA) approach. […] After 5 washes with wash buffer followed by two washes with PBS, binding of antibodies was assessed. […] Plates were read at 450 nm. […]

immobilized BiP = target: T2, immobilized BiP (Homo sapiens, UniProt P11021); test: Depletion of solutions from misfolded proteins using immobilized BiP (ELISA); type: binding; details: BiP coated at 5 μg/ml; 1, 10, 100 μg/ml misfolded protein
T2 construct: The human BiP gene except the signal peptide encoding region was obtained from Geneart (Germany); linker […]; made in house; host or cells: HEK 293E cells, transient transfection, PABC674 vector; secreted into the medium
T2 sequence (P11021 19-654): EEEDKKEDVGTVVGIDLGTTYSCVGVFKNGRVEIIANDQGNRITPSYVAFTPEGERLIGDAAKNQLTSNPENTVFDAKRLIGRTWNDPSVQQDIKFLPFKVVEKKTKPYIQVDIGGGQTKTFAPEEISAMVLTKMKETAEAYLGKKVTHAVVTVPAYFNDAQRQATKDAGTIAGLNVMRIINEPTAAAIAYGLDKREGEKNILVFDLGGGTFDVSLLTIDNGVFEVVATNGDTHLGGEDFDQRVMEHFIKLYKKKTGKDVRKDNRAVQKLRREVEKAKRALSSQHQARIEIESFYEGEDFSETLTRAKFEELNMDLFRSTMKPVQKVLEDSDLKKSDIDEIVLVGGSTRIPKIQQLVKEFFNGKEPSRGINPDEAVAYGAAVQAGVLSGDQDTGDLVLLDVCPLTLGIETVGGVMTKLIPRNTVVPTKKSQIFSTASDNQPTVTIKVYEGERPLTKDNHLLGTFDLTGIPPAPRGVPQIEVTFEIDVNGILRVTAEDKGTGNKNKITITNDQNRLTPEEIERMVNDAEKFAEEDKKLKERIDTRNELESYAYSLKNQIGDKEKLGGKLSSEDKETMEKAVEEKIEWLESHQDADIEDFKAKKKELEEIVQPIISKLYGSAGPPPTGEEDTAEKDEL
Description: We analysed whether recombinant human BiP with a C-terminal FLAG-tag and His-tag can be applied for depleting solutions from misfolded proteins comprising crossbeta structure.
BiP was coated at a concentration of 5 μg/ml at Greiner Microlon high-binding plates, for 1 h at room temperature with motion. As a negative control buffer was coated. ELISAs were performed essentially as described before. […] All binding buffers were PBS/0.1% (v/v) Tween20. Binding of dOVA was assayed using monoclonal anti-chicken egg albumin antibody (Sigma, A6075, 1:10.000 dilution) and RAMPO (Dako Cytomation, P0260, 1:3.000). […] Background signals obtained with buffer coated wells that were subsequently overlayed with protein solutions (see below), were subtracted from signals obtained with wells with coated BiP.

[2] = Transmission electron microscopy (TEM); type: physicochemical; details: magnification 10K
Description: Transmission Electron Microscopy (TEM)
TEM images were collected using a Jeol 1200 EX transmission electron microscope (Jeol Ltd., Tokyo, Japan) at an excitation voltage of 80 kV. For each sample, the formvar and carbon-coated side of a 100-mesh copper or nickel grid was positioned on a 5 μl drop of protein solution for 5 minutes. Afterwards, it was positioned on a 100 μl drop of PBS for 2 minutes, followed by three 2-minute incubations with a 100 μl drop of distilled water. The grids were then stained for 2 minutes with a 100 μl drop of 2% (m/v) methylcellulose with 0.4% uranyl acetate pH 4. Excess fluid was removed by streaking the side of the grids over filter paper, and the grids were subsequently dried under a lamp. Samples were analysed at a magnification of 10K.

T1 sequence (P10809 27-573): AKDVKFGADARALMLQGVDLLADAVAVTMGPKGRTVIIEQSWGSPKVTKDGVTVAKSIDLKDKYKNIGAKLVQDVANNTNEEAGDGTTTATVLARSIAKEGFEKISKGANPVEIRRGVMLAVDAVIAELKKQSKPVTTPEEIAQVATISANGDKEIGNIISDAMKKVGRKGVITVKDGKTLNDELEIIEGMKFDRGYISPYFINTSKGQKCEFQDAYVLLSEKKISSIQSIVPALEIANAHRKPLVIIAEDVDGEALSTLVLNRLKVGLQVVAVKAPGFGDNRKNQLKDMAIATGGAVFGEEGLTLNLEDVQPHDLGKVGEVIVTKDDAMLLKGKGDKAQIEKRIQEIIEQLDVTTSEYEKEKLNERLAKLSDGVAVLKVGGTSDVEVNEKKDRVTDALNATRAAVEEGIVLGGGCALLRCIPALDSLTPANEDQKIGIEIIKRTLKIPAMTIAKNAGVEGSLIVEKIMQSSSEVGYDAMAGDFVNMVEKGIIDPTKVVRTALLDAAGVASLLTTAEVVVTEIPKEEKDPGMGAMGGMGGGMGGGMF

B1: dOVA standard: heat-denatured chicken ovalbumin (protein)
chain: GSIGAASMEFCFDVFKELKVHHANENIFYCPIAIMSALAMVYLGAKDSTRTQINKVVRFDKLPGFGDSIEAQCGTSVNVHSSLRDILNQITKPNDVYSFSLASRLYAEERYPILPEYLQCVKELYRGGLEPINFQTAADQARELINSWVESQTNGIIRNVLQPSSVDSQTAMVLVNAIVFKGLWEKAFKDEDTQAMPFRVTEQESKPVQMMYQIGLFRVASMASEKMKILELPFASGTMSMLVLLPDEVSGLEQLESIINFEKLTEWTSSNVMEERKIKVYLPRMKMEEKYNLTSVLMAMGITDVFSSSANLSGISSAESLKISQAVHAAHAEINEAGREVVGSAEAGVDAASVSEEFRADHPFLFCIKHIATNAVLFFGRCVSP
For B1, the “Binding of concentration series of HSP60 to coated ligand” value [1] was “has been established”, the “Extraction from solution by immobilized BiP” value (immobilized BiP) was “can be extracted” and the “Appearance on TEM images” value [2] was “aggregates into non-fibrillar multimers”.
